Experiment [1] concerns the target T1, cynomolgus monkey GPC3 on CHO-S transfected cells (cynomolgus monkey, UniProt A5A6P7 25-554 (Pan troglodytes entry)).
T1 construct: transient expression from a pTT5-based plasmid; also called CHO-S Cyno GPC3; CynoGPC3-CHO
The experiment can be described thus: flow cytometry, CHO-S cells transfected with cynomolgus monkey GPC3; apparent Kd. In general terms: In flow cytometry, cells or beads pass a laser one at a time.
Description: (§1) Briefly, CHO—S cells were transiently transfected for −24 hours with a pTT5-based expression plasmid encoding human GPC3 or cynomolgus monkey GPC3, 0.5 μg DNA per 1 million cells, using the Neon™ Transfection System (Thermo Fisher Scientific Corp., Waltham, MA), to transiently express human or cynomolgus monkey GPC3. Following transfection, cells were seeded at 50,000 cells/well in V-bottom 96-well plates and treated with antibody for 24 hours at 4° C. to prevent internalization. […] Following incubation and washing, fluorescence was detected by flow cytometry on a BD LSRFortessa™ Cell Analyzer (BD Biosciences, Franklin Lake, NJ) with 1,000 minimum events collected per well. AF647/APC-A GeoMean (fluorescence signal geometric mean, proportional to anti-Human AF647 binding) in live cell population was plotted against antibody concentration using GraphPad Prism Version 9 (GraphPad Software, San Diego, CA). The Bmax and Kd values were derived from the “Specific binding with Hill slope” nonlinear regression curve fit in GraphPad Prism Version 9.

Experiment [2] deals with T2, human GPC3 on cells (human, UniProt P51654 25-554).
T2 construct: GPI-anchored protein on transfected CHO-S cells, on human tumor cell lines or on HEK293T cells; the cell is named under assay; also called human GPC3 on CHO-S transfected cells; HuGPC3-CHO
The experiment can be described thus: flow cytometry, HepG2 cells.
Description: (§2) Briefly, cells were seeded at 50,000 cells/well in V-bottom 96-well plates and treated with antibody for 24 hours at 4° C. to prevent internalization. […] Following incubation and washing, fluorescence was detected by flow cytometry on a BD LSRFortessa™ Cell Analyzer (BD Biosciences, Franklin Lake, NJ) with 1,000 minimum events collected per well. AF647/APC-A GeoMean (fluorescence signal geometric mean, proportional to anti-Human AF647 binding) in live cell population was plotted against antibody concentration using GraphPad Prism Version 9 (GraphPad Software, San Diego, CA). The Bmax, Curve Hill Slope (h) and Kd values were derived from the “Specific binding with Hill slope” nonlinear regression curve fit in GraphPad Prism Version 9.

For experiment [3], the target named is T2, human GPC3 on cells. The experiment can be described thus: flow cytometry on HepG2 cells (GPC3-high), 24 h at 4 C, anti-human IgG Fc AF647.
Description: as §2
For experiment [4], the target named is T2, human GPC3 on cells. The experiment can be described thus: flow cytometry, CHO-S cells transfected with human GPC3; apparent Kd.
Description: as §1
The target in experiment [5] is T2, human GPC3 on cells. The experiment can be described thus: flow cytometry on JHH-7 cells (GPC3-high), 24 h at 4 C, anti-human IgG Fc AF647.
Description: as §2
The target of experiment [6] is KLH (Sigma-Aldrich, H8283). Kind of experiment: NS-ELISA, plate coated with KLH, antibody at 100 nM. Background: ELISA stands for enzyme-linked immunosorbent assay.
Description: 50 μL each of insulin, KLH, dsDNA and ssDNA were added to a 96 well plate, followed by the incubation at 37° C. for 2 h. The coating materials were removed, and the plate was blocked with 200 μL of Gibco™ PBS pH7.4, 0.1% Tween®20, and incubated for 1 h at room temperature with shaking at 200 rpm. The plate was washed 3 times with Gibco™ PBS pH7.4, 0.1% Tween 20. 50 μL of each mAb at 100 nM (15 mg/mL) in Gibco™ PBS pH 7.4, 0.1% Tween®20 was added in duplicate to the wells and incubated for 1 h at room temperature with shaking at 200 rpm. Plates were washed three times with Gibco™ PBS pH7.4, 0.1% Tween 20, and 50 μL of 50 ng/mL anti-human IgG HRP (Thermofisher Scientific©, H₁₀₃₀₇) was added to each well. Plates were incubated for 1 h at room temperature, with shaking at 200 rpm. The plate was washed three times with Gibco™ PBS pH7.4, 0.1% Tween 20, and 100 μL of TMB substrate (Cell Signaling Technology©, 7004P6) added to each well. […] Binding scores were calculated as the ratio of the ELISA signal of the antibody to the signal of a well containing buffer instead of the primary antibody. The cutoffs considered for each binding molecule (ssDNA. KLH, Insulin, dsDNA and Heparin) were internally calculated.
For experiment [7], the target named is T2, human GPC3 on cells. The experiment can be described thus: flow cytometry, JHH-7 cells.
Description: as §2
Experiment [8] concerns the target T3, recombinant human GPC3 (ACROBiosystems) (human, UniProt P51654 25-559).
T3 construct: bought antigen of the SPR assays, SEC purified; also called huGPC3; hGPC3
Kind of experiment: SPR, antibody captured on anti-Fc, GPC3 injected, 1:1 fit. On the technique in general: In SPR one partner is held on a chip, and binding of the other changes the refractive index at the surface.
Description: (§3) Antigens: recombinant human and cynomolgus GPC3 was purchased from ACROBiosystems (Newark, DE) and SEC purified on a Superdex 200 10/300 GL column (Cytiva) in PBST running buffer at 0.8 mL/min.
(§4) Screening of the antibodies for binding to GPC3 antigen was conducted via anti-Fc capture of antibodies, followed by the injection of five concentrations of GPC3. The anti-Fc surface was prepared on a CM5 Series S sensor chip by standard amine coupling methods as described by the manufacturer (Cytiva Life Sciences, Mississauga, ON, Canada). […] Approximately 500-600 RUs of each antibody (1-3 μg/mL) were captured on the goat anti-human IgG surface by injecting at 10 μL/min for 60s. Using single-cycle kinetics, five concentrations of a two-fold dilution series of human or cynomolgus GPC3 starting at 40 nM (or 20 nM) with a blank buffer control were injected at 40 μL/min for 180s of contact time, followed by 180 s (or 300 s) dissociation phase, resulting in sensorgrams with a buffer blank reference. The anti-Fc surface was regenerated to prepare for the next injection cycle by one pulse of 10 mM glycine/HCl pH 1.5 for 180 s at 40 μL/min. Blank-subtracted sensorgrams were analyzed using Biacore™ T200 Evaluation Software v3.0. The blank-subtracted sensorgrams were then fit to the 1:1 Langmuir binding model.

Experiment [9] deals with T4, recombinant cynomolgus GPC3 (ACROBiosystems) (cynomolgus monkey, UniProt A5A6P7 25-559 (Pan troglodytes entry), limits assumed).
T4 construct: bought antigen of the SPR assays; also called cynoGPC3
The experiment is described as above.
Description: as §3, §4

Experiment [10] concerns the target T2, human GPC3 on cells. Kind of experiment: flow cytometry on JHH-5 cells (GPC3-mid), 24 h at 4 C, anti-human IgG Fc AF647.
Description: (§5) Cell lines investigated included GPC3-hi HepG2 and JHH-7 cells, GPC3-mid JHH-5 cells, as well as GPC3-negative SNU-601 cells.
as §2
Experiment [11] addresses T2, human GPC3 on cells. Kind of experiment: flow cytometry, JHH-7 cells; apparent Kd.
Description: as §2
Experiment [12] deals with T2, human GPC3 on cells. Kind of experiment: flow cytometry, HepG2 cells; apparent Kd.
Description: as §2
Another experiment has as its target T5, FcgR1A (human, UniProt P12314 16-374).
T5 construct: whole, on cells
Kind of experiment: Membrane Proteome Array: high-throughput flow cytometry on unfixed HEK293T cells, each well expressing one human membrane protein; antibody at 1.25 ug/mL; the text ascribes this to the Fc portion.

Experiment [13] deals with T6, human GPC3 on cells (human, UniProt P51654 25-554).
T6 construct: whole, on cells; One molecule is used for transfected CHO-S cells and for tumour cell lines that carry GPC3; the cell line is named under assay or readout; also called CHO-S Human GPC3; GPC3 on HepG2, JHH-7, JHH-5, NCI-H446, FU-97, Huh-6, Huh-7, MKN-45 cells
Kind of experiment: flow cytometry, CHO-S cells transfected with human GPC3.
Description: as §1

In experiment [14] the target is T6, human GPC3 on cells. Kind of experiment: flow cytometry, CHO-S cells transfected with human GPC3; apparent Kd.
Description: as §1
In experiment [15] the target is T6, human GPC3 on cells. The experiment can be described thus: flow cytometry, JHH-5 cells.
Description: as §5, §2
For experiment [16], the target named is T7, cynomolgus monkey GPC3 on CHO-S cells (cynomolgus monkey, UniProt A0A2K5VK50 24-553).
T7 construct: whole, on cells; also called CHO-S Cyno GPC3
The experiment can be described thus: flow cytometry, CHO-S cells transfected with cynomolgus monkey GPC3.
Description: as §1

Experiment [17] deals with T6, human GPC3 on cells. Kind of experiment: flow cytometry, JHH-7 cells.
Description: as §5, §2
Experiment [18] concerns the target T7, cynomolgus monkey GPC3 on CHO-S cells. Kind of experiment: flow cytometry, CHO-S cells transfected with cynomolgus monkey GPC3; apparent Kd.
Description: as §1
Experiment [19] deals with T6, human GPC3 on cells. Kind of experiment: flow cytometry, HepG2 cells.
Description: as §5, §2
Experiment [20] has as its target T2, human GPC3 on cells. The experiment can be described thus: flow cytometry on JHH-7 cells (GPC3-high), 24 h at 4 C, anti-human IgG Fc AF647. This is another data set of the same source.
Description: as §5, §2
Experiment [21] addresses T2, human GPC3 on cells. Kind of experiment: flow cytometry on HepG2 cells (GPC3-high), 24 h at 4 C, anti-human IgG Fc AF647. The source holds these as a separate data set.
Description: as §5, §2
Experiment [22] concerns the target T2, human GPC3 on cells. The experiment can be described thus: flow cytometry on CHO-S cells transiently transfected with human GPC3, 24 h at 4 C, anti-human IgG Fc AF647.
Description: as §1
In experiment [23] the target is T3, recombinant human GPC3 (ACROBiosystems). The experiment can be described thus: SPR; Kd on huGPC3 over Kd on cynoGPC3.
Description: as §3, §4
Experiment [24] deals with T2, human GPC3 on cells. The experiment can be described thus: cell-based or functional assay.

Here are results for seven molecules from patent US20250295799A1 (Zymeworks, published 2025).

Usually EC50 (read off the curve) stands for the concentration that produces a half-maximal response.

T5 sequence (P12314 16-374): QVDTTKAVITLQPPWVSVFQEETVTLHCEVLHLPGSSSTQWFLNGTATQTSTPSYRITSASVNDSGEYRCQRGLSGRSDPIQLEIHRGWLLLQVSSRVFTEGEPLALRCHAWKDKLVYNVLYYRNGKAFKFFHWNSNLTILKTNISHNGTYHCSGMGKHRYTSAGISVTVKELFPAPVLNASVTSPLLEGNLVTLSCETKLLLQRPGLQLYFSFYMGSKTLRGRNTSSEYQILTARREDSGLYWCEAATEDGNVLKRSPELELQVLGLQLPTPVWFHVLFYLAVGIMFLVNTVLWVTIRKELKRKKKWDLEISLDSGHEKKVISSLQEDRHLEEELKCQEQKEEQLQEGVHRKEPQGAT
Description for FcgR1A: Briefly, the study consisted of three phases: phase (1) determination of assay screening conditions, phase (2) membrane proteome array (library) screen and phase (3) protein target validation. […] In phase (3), each protein target hit from the screen stage (potential off-target interactions) was assessed in titration experiment using flow cytometry.

B1: v37574 (M3-H18L6) (antibody, human IgG1, kappa)
heavy: not shown
light: EIVLTQSPATLSLSPGERATISCRSSQSLRHSNGNTYLQWYQQKPGQAPRLLIYKVSNRFSGVPARFSGSGSGTDFTLTISSLEPEDFAVYFCYQSKHVPYTFGGGTKVEIKRTVAAPSVFIFPPSDEQLKSGTASVVCLLNNFYPREAKVQWKVDNALQSGNSQESVTEQDSKDSTYSLSSTLTLSKADYEKHKVYACEVTHQGLSSPVTKSFNRGEC
notes: humanized full-size IgG1 (IGHG1*01)/kappa antibody without heavy chain C-terminal lysine
Take B1: the Kd was 0.38 nM in experiment [1]; 0.53 nM with human GPC3 on cells [4]; 11.1 nM in experiment [8]; 11.1 nM in experiment [9]; 0.22 nM in the experiment with human GPC3 on cells [11]; 1.1 nM with human GPC3 on cells [12]. Besides, the Bmax with human GPC3 on cells [2] was 33900; with human GPC3 on cells [7], 8520. For the same molecule, the “EC50 (read off the curve)” value with human GPC3 on cells [3] was approximately 0.7 nM; in the experiment with human GPC3 on cells [5] it was approximately 0.2 nM; with human GPC3 on cells [10], approximately 0.2 nM. In addition, in experiment [6], the NS-ELISA binding score is 0.91 ratio to buffer well.

B2: v38592 (M3-H18L6 with HC C-terminal lysine) (antibody, human IgG1, kappa)
heavy: not shown
light: EIVLTQSPATLSLSPGERATISCRSSQSLRHSNGNTYLQWYQQKPGQAPRLLIYKVSNRFSGVPARFSGSGSGTDFTLTISSLEPEDFAVYFCYQSKHVPYTFGGGTKVEIKRTVAAPSVFIFPPSDEQLKSGTASVVCLLNNFYPREAKVQWKVDNALQSGNSQESVTEQDSKDSTYSLSSTLTLSKADYEKHKVYACEVTHQGLSSPVTKSFNRGEC
notes: identical to v37574 but the cDNA of the heavy chains encodes a C-terminal lysine; also called M3-H18L6 (WT) mAb; wild-type M3-H18L6
For the molecule B2, in the experiment with FcgR1A, the binding result is given as “binds”.

B3: v38592-MC-GGFG-AM-Compound 139, DAR 4 (antibody, human IgG1, kappa)
heavy: not shown
light: EIVLTQSPATLSLSPGERATISCRSSQSLRHSNGNTYLQWYQQKPGQAPRLLIYKVSNRFSGVPARFSGSGSGTDFTLTISSLEPEDFAVYFCYQSKHVPYTFGGGTKVEIKRTVAAPSVFIFPPSDEQLKSGTASVVCLLNNFYPREAKVQWKVDNALQSGNSQESVTEQDSKDSTYSLSSTLTLSKADYEKHKVYACEVTHQGLSSPVTKSFNRGEC
modifications: MC-GGFG-AM-Compound 139 drug-linker on cysteines (positions not stated); DAR 4 per antibody
notes: Antibody-drug conjugate of v38592
For the molecule B3, the Bmax with human GPC3 on cells [13] is 259; with human GPC3 on cells [15], 5500; in [16], 506; with human GPC3 on cells [17], 4730; in the experiment with human GPC3 on cells [19] it was 4050. For the same molecule, the Kd was 0.29 nM with human GPC3 on cells [14]; 0.43 nM in the experiment with human GPC3 on cells [15]; 0.88 nM with human GPC3 on cells [17]; 0.55 nM in [18]; 8.69 nM in the experiment with human GPC3 on cells [19].

B4: v38592-MC-GGFG-AM-Compound 139, DAR 8 (antibody, human IgG1, kappa)
heavy: not shown
light: EIVLTQSPATLSLSPGERATISCRSSQSLRHSNGNTYLQWYQQKPGQAPRLLIYKVSNRFSGVPARFSGSGSGTDFTLTISSLEPEDFAVYFCYQSKHVPYTFGGGTKVEIKRTVAAPSVFIFPPSDEQLKSGTASVVCLLNNFYPREAKVQWKVDNALQSGNSQESVTEQDSKDSTYSLSSTLTLSKADYEKHKVYACEVTHQGLSSPVTKSFNRGEC
modifications: MC-GGFG-AM-Compound 139 drug-linker on cysteines (positions not stated); DAR 8 per antibody
notes: as for B3
Regarding B4, the Bmax in the experiment with human GPC3 on cells [13] stood at 247; with human GPC3 on cells [15], 5710; in [16], 511; with human GPC3 on cells [17] it was 4550; in the experiment with human GPC3 on cells [19], 3370. Moreover, the Kd was found to be 0.33 nM in the experiment with human GPC3 on cells [14]; 0.51 nM with human GPC3 on cells [15]; 0.7 nM with human GPC3 on cells [17]; 0.7 nM in experiment [18]; 7.27 nM with human GPC3 on cells [19].

B5: v38592-MC-GGFG-AM-Compound 139, DAR 4 (antibody, human IgG1, kappa)
heavy: not shown
light: EIVLTQSPATLSLSPGERATISCRSSQSLRHSNGNTYLQWYQQKPGQAPRLLIYKVSNRFSGVPARFSGSGSGTDFTLTISSLEPEDFAVYFCYQSKHVPYTFGGGTKVEIKRTVAAPSVFIFPPSDEQLKSGTASVVCLLNNFYPREAKVQWKVDNALQSGNSQESVTEQDSKDSTYSLSSTLTLSKADYEKHKVYACEVTHQGLSSPVTKSFNRGEC
modifications: MC-GGFG-AM-Compound 139 drug-linker on reduced cysteines, sites not stated; MC-GGFG-AM-Compound 139 drug-linker on reduced cysteines, sites not stated; DAR 4 for the whole antibody
notes: antibody-drug conjugate
On to B5, for which the “EC50 (read off the curve)” value in the experiment with human GPC3 on cells [20] was approximately 0.9 nM; in the experiment with human GPC3 on cells [21], approximately 9 nM; with human GPC3 on cells [10] it was approximately 0.4 nM; with human GPC3 on cells [22], approximately 0.3 nM.

B6: v38592-MC-GGFG-AM-Compound 139, DAR 8 (antibody, human IgG1, kappa)
heavy: not shown
light: EIVLTQSPATLSLSPGERATISCRSSQSLRHSNGNTYLQWYQQKPGQAPRLLIYKVSNRFSGVPARFSGSGSGTDFTLTISSLEPEDFAVYFCYQSKHVPYTFGGGTKVEIKRTVAAPSVFIFPPSDEQLKSGTASVVCLLNNFYPREAKVQWKVDNALQSGNSQESVTEQDSKDSTYSLSSTLTLSKADYEKHKVYACEVTHQGLSSPVTKSFNRGEC
modifications: MC-GGFG-AM-Compound 139 drug-linker on reduced cysteines, sites not stated; MC-GGFG-AM-Compound 139 drug-linker on reduced cysteines, sites not stated; DAR 8 for the whole antibody
notes: antibody-drug conjugate
On to B6, for which the figures for the “EC50 (read off the curve)” value in the experiment with human GPC3 on cells [20] and in the experiment with human GPC3 on cells [21] were approximately 0.8 nM and approximately 7 nM, respectively.

B7: v36180 (M3-H1L1) (antibody, human IgG1, kappa, V domains shown)
VH: EVQLVQSGAEVKKPGSSVKVSCKASGYTFTDYEMHWVRQAPGQGLEWIGAIDPETGDTAYNQKFKGRATLTADKSTSTAYMELSSLRSEDTAVYYCTRYFSFAYWGQGTLVTVSS
VL: DVQMTQSPSSVSASVGDRVTITCRSSQSLRHSNGNTYLQWYQQKPGKAPKLLIYKVSNRFSGVPSRFSGSGSGTDFTLTISSLQPEDFATYFCYQSKHVPYTFGQGTKVEIKR
notes: humanized full-size IgG1 (IGHG1*01)/kappa antibody; heavy chain ends at G446 (EU); also called M3-HIL1
In the case of B7, the Bmax with human GPC3 on cells [2] was 40000; in the experiment with human GPC3 on cells [7], 9340. Also, the “EC50 (read off the curve)” value was approximately 0.9 nM with human GPC3 on cells [3] and approximately 0.3 nM with human GPC3 on cells [5]. For the same molecule, the “Fold difference (hu/cyno)” value in [23] was determined as 1.1 fold. The “internalized fluorescence, fold increase over palivizumab, Hep G2, 5 hours, 10 nM” value in the experiment with human GPC3 on cells [24] stood at 17 fold. For the same molecule, the “internalized fluorescence, fold increase over palivizumab, Hep G2, 24 hours, 10 nM” value in the experiment with human GPC3 on cells [24] came out at 66.2 fold. Further, in the experiment with human GPC3 on cells [24], the “internalized fluorescence, fold increase over palivizumab, JHH-7, 5 hours, 10 nM” value came out at 8.6 fold. Also, in the experiment with human GPC3 on cells [24], the “internalized fluorescence, fold increase over palivizumab, JHH-7, 24 hours, 10 nM” value turned out to be 46.4 fold. Moreover, the NS-ELISA binding score in [6] was 5.45 ratio to buffer well. Also, the Kd in experiment [8] amounted to 10.5 nM; in experiment [9], 9.67 nM; with human GPC3 on cells [11], 0.25 nM; in the experiment with human GPC3 on cells [12], 0.91 nM.
